For 43 molecules, Kd results are on record in article PMC9352680, “A comprehensive thermodynamic model for RNA binding by the Saccharomyces cerevisiae Pumilio protein PUF4”.

Sequences and labels used below:
B1: Ib_S3_P3E.1_K3.1_C3.1_H3.1_[G2C]_A3.1_[T5C]_F3.1_T3.1 (ssRNA)
RNA: ACAAACUCUACAUAACAAAC
B2: Ib_S3_P3E.1_K3.1_C3.1_H3.1_[G2T]_A3.1_[T5G]_F3.1_T3.1 (ssRNA)
RNA: ACAAACUUUAGAUAACAAAC
B3: Ib_S3_P3E.1_K3.1_C3.1_H3.1_[T3G]_A3.1_[A6T]_F3.1_T3.1 (ssRNA)
RNA: ACAAACUGGAUUUAACAAAC
B4: Ib_S3_P3E.1_K3.1_C3.1_H3.1_[T3C]_[A4T]_A3.1_F3.1_T3.1 (ssRNA)
RNA: ACAAACUGCUUAUAACAAAC
B5: Ib_S3_P3E.1_K3.1_C3.1_H3.1_[T1C]_[A4C]_A3.1_F3.1_T3.1 (ssRNA)
RNA: ACAAACCGUCUAUAACAAAC
B6: Ib_S2_P5E.1_K5.1_C5.1_H5.1_A5.1_[T5C]_[A7C]_F5.1_T5.1 (ssRNA)
RNA: UUUGAUUAAUAUGAUAUCGUUCUUUCUUGUACUCUUAUUCUUUCUCGAUAUCAUAUUAAUCUUU
B7: Ia_S2_P5E.1_K5.1_C5.1_H5.1_[A4G]_A5.1_F5.1_T5.1 (ssRNA)
RNA: UUUGAUUAAUAUGAUAUCGUUCUUUCUUGUGUUAUUAUUCUUUCUCGAUAUCAUAUUAAUCUUU
B8: Ic_S2_P5E.1_K5.1_C5.1_H5.1_A5.1_[T6G]_[A7C]_F5.1_T5.1 (ssRNA)
RNA: UUUGAUUAAUAUGAUAUCGUUCUUUCUUGUAUGCUUAUUCUUUCUCGAUAUCAUAUUAAUCUUU
B9: Ia_S2_P5E.1_K5.1_C5.1_H5.1_[G2A]_A5.1_F5.1_T5.1 (ssRNA)
RNA: UUUGAUUAAUAUGAUAUCGUUCUUUCUUAUAUUAUUAUUCUUUCUCGAUAUCAUAUUAAUCUUU
B10: Ib_S2_P5E.1_K5.1_C5.1_H5.1_A5.1_[T6G]_[A7T]_F5.1_T5.1 (ssRNA)
RNA: UUUGAUUAAUAUGAUAUCGUUCUUUCUUGUAUGUUUAUUCUUUCUCGAUAUCAUAUUAAUCUUU
B11: Ia_S2_P5E.1_K5.1_C5.1_H5.1_[A4T]_A5.1_F5.1_T5.1 (ssRNA)
RNA: UUUGAUUAAUAUGAUAUCGUUCUUUCUUGUUUUAUUAUUCUUUCUCGAUAUCAUAUUAAUCUUU
B12: Ic_S2_P5E.1_K5.1_C5.1_H5.1_A5.1_[T5A]_[A7G]_F5.1_T5.1 (ssRNA)
RNA: UUUGAUUAAUAUGAUAUCGUUCUUUCUUGUAAUGUUAUUCUUUCUCGAUAUCAUAUUAAUCUUU
B13: Ib_S2_P5E.1_K5.1_C5.1_H5.1_A5.1_[T5C]_[A7T]_F5.1_T5.1 (ssRNA)
RNA: UUUGAUUAAUAUGAUAUCGUUCUUUCUUGUACUUUUAUUCUUUCUCGAUAUCAUAUUAAUCUUU
B14: Ia_S2_P5E.1_K5.1_C5.1_H5.1_A5.1_[T5G]_F5.1_T5.1 (ssRNA)
RNA: UUUGAUUAAUAUGAUAUCGUUCUUUCUUGUAGUAUUAUUCUUUCUCGAUAUCAUAUUAAUCUUU
B15: Ib_S3_P3E.1_K3.1_C3.1_H3.1_[A4C]_A3.1_F3.1_[T7G]_T3.1 (ssRNA)
RNA: ACAAACUGUCUAGAACAAAC
B16: Ib_S3_P3E.1_K3.1_C3.1_H3.1_[T3A]_A3.1_[A6C]_F3.1_T3.1 (ssRNA)
RNA: ACAAACUGAAUCUAACAAAC
B17: Ib_S3_P3E.1_K3.1_C3.1_H3.1_[T1C]_[G2T]_A3.1_F3.1_T3.1 (ssRNA)
RNA: ACAAACCUUAUAUAACAAAC
B18: Ib_S3_P3E.1_K3.1_C3.1_H3.1_[T3C]_A3.1_[T5G]_F3.1_T3.1 (ssRNA)
RNA: ACAAACUGCAGAUAACAAAC
B19: Ib_S3_P3E.1_K3.1_C3.1_H3.1_[T1C]_A3.1_F3.1_[T7G]_T3.1 (ssRNA)
RNA: ACAAACCGUAUAGAACAAAC
B20: Ib_S3_P3E.1_K3.1_C3.1_H3.1_[T3C]_A3.1_F3.1_[T7A]_T3.1 (ssRNA)
RNA: ACAAACUGCAUAAAACAAAC
B21: Ib_S3_P3E.1_K3.1_C3.1_H3.1_[G2C]_A3.1_[T5G]_F3.1_T3.1 (ssRNA)
RNA: ACAAACUCUAGAUAACAAAC
B22: Ib_S3_P3E.1_K3.1_C3.1_H3.1_[A4C]_A3.1_F3.1_[T7C]_T3.1 (ssRNA)
RNA: ACAAACUGUCUACAACAAAC
B23: Ib_S3_P3E.1_K3.1_C3.1_H3.1_[G2T]_A3.1_[A6T]_F3.1_T3.1 (ssRNA)
RNA: ACAAACUUUAUUUAACAAAC
B24: Ib_S3_P3E.1_K3.1_C3.1_H3.1_[G2A]_A3.1_[A6T]_F3.1_T3.1 (ssRNA)
RNA: ACAAACUAUAUUUAACAAAC
B25: Ib_S3_P3E.1_K3.1_C3.1_H3.1_[A4C]_A3.1_[A6T]_F3.1_T3.1 (ssRNA)
RNA: ACAAACUGUCUUUAACAAAC
B26: Ib_S3_P3E.1_K3.1_C3.1_H3.1_[T1G]_A3.1_[A6C]_F3.1_T3.1 (ssRNA)
RNA: ACAAACGGUAUCUAACAAAC
B27: Ib_S3_P3E.1_K3.1_C3.1_H3.1_[T1A]_A3.1_F3.1_[T7A]_T3.1 (ssRNA)
RNA: ACAAACAGUAUAAAACAAAC
B28: Ib_S3_P3E.1_K3.1_C3.1_H3.1_[T1C]_[G2C]_A3.1_F3.1_T3.1 (ssRNA)
RNA: ACAAACCCUAUAUAACAAAC
B29: Ib_S3_P3E.1_K3.1_C3.1_H3.1_[T1A]_A3.1_[A6T]_F3.1_T3.1 (ssRNA)
RNA: ACAAACAGUAUUUAACAAAC
B30: Ib_S3_P3E.1_K3.1_C3.1_H3.1_[T1C]_A3.1_[T5A]_F3.1_T3.1 (ssRNA)
RNA: ACAAACCGUAAAUAACAAAC
B31: Ib_S3_P3E.1_K3.1_C3.1_H3.1_[T3A]_[A4G]_A3.1_F3.1_T3.1 (ssRNA)
RNA: ACAAACUGAGUAUAACAAAC
B32: Ib_S3_P3E.1_K3.1_C3.1_H3.1_[T3C]_[A4G]_A3.1_F3.1_T3.1 (ssRNA)
RNA: ACAAACUGCGUAUAACAAAC
B33: Ib_S3_P3E.1_K3.1_C3.1_H3.1_[G2T]_A3.1_F3.1_[A8T]_T3.1 (ssRNA)
RNA: ACAAACUUUAUAUUACAAAC
B34: Ib_S3_P3E.1_K3.1_C3.1_H3.1_[G2C]_A3.1_F3.1_[A8T]_T3.1 (ssRNA)
RNA: ACAAACUCUAUAUUACAAAC
B35: Ib_S3_P3E.1_K3.1_C3.1_H3.1_[T3C]_A3.1_F3.1_[A8G]_T3.1 (ssRNA)
RNA: ACAAACUGCAUAUGACAAAC
B36: Ib_S3_P3E.1_K3.1_C3.1_H3.1_[T1A]_A3.1_[T5G]_F3.1_T3.1 (ssRNA)
RNA: ACAAACAGUAGAUAACAAAC
B37: Ib_S3_P3E.1_K3.1_C3.1_H3.1_[T1A]_A3.1_[T5C]_F3.1_T3.1 (ssRNA)
RNA: ACAAACAGUACAUAACAAAC
B38: Ib_S3_P3E.1_K3.1_C3.1_H3.1_[T3G]_A3.1_[T5G]_F3.1_T3.1 (ssRNA)
RNA: ACAAACUGGAGAUAACAAAC
B39: Ib_S3_P3E.1_K3.1_C3.1_H3.1_[T3C]_A3.1_F3.1_[A8T]_T3.1 (ssRNA)
RNA: ACAAACUGCAUAUUACAAAC
B40: Ib_S3_P3E.1_K3.1_C3.1_H3.1_[A4C]_A3.1_F3.1_[A8T]_T3.1 (ssRNA)
RNA: ACAAACUGUCUAUUACAAAC
B41: Ib_S3_P3E.1_K3.1_C3.1_H3.1_[A4C]_A3.1_F3.1_[T7A]_T3.1 (ssRNA)
RNA: ACAAACUGUCUAAAACAAAC
B42: Ib_S3_P3E.1_K3.1_C3.1_H3.1_[T1C]_A3.1_F3.1_[A8T]_T3.1 (ssRNA)
RNA: ACAAACCGUAUAUUACAAAC
B43: Ib_S3_P3E.1_K3.1_C3.1_H3.1_[T1G]_A3.1_[T5C]_F3.1_T3.1 (ssRNA)
RNA: ACAAACGGUACAUAACAAAC

The data set has as its target T1, PUF4 RNA-binding domain (Saccharomyces cerevisiae, UniProt P25339 537-888).
T1 sequence: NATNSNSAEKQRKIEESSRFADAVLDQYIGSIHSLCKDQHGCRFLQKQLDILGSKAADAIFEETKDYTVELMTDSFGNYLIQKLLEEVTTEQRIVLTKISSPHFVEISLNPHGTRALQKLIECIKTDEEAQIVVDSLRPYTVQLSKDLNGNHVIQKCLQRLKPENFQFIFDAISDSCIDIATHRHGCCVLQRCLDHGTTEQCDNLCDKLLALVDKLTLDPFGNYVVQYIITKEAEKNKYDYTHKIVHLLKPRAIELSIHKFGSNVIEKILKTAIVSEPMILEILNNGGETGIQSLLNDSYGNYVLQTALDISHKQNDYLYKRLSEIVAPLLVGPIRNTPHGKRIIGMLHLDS
Briefly: Mg; RNA-MaP; 20 mM Na-HEPES pH 7.4, 30 mM KOAc, 0.75 mM MgCl2, 0.1% Tween-20, 5% glycerol, 0.1 mg/mL BSA, 2 mM DTT; 25 C; 0.0125-409.6 nM protein. The settings on record: tags: N-His6-TEV cleaved; C-SNAP kept, Cy3B-labelled; label: tethered on chip by stalled RNA polymerase.
For the molecule B1, the Kd (in general, a measure of binding affinity in units of concentration) is greater than 2300 nM.
For B2 the value was greater than 2300 nM; for B3, greater than 2300 nM.
For B4 the value was greater than 2300 nM; for B5, greater than 2300 nM.
For B6 the value was 2.13 nM; for B7, 12.9 nM; for B8, 6.06 nM.
B9 displayed a Kd of 267 nM.
For B10 the value was 6.35 nM.
For B11 the value was 11.5 nM; for B12, 13.1 nM.
For B13 the value was 1.36 nM.
With B14, the Kd is 6.34 nM. Compared with the last molecule, the Kd is about 4.7-fold higher.
For B15 the value was greater than 2300 nM.
In the case of B16 it was greater than 2300 nM; in that of B17, greater than 2300 nM.
For B18 the value was greater than 2300 nM; for B19, greater than 2300 nM; for B20, greater than 2300 nM.
Molecule B21 had a Kd greater than 2300 nM.
For B22 the value was greater than 2300 nM.
For B23 the value was greater than 2300 nM.
For B24 the value was greater than 2300 nM; for B25, greater than 2300 nM.
In the case of B26, the Kd was greater than 2300 nM.
In the case of B27 it was greater than 2300 nM; in that of B28, greater than 2300 nM; in that of B29, greater than 2300 nM.
In the case of B30 it was greater than 2300 nM; in that of B31, greater than 2300 nM; in that of B32, greater than 2300 nM.
Take B33: binding was put at a Kd of 704 nM.
For B34 the value was greater than 2300 nM; for B35, greater than 2300 nM; for B36, greater than 2300 nM.
B37 returned a Kd greater than 2300 nM.
For B38 the value was greater than 2300 nM; for B39, 98.9 nM.
For B40 the value was 116 nM; for B41, greater than 2300 nM.
In the case of B42 it was 78.5 nM.
The molecule B43 registered a Kd greater than 2300 nM.
